The values that follow come from PMC6555636.

Assay [1] addresses EXP2 (P. falciparum (endogenous in strain NF54attB)). The assay can be described thus: cryo-EM structure.
In assay [2] the target is PTEX150 (P. falciparum (endogenous in strain NF54attB)). The assay can be described thus: cryo-EM structure.

For orientation: stoichiometry N means the number of molecules, sites or subunits per partner or assembly. EXP2 (natural protein) showed a stoichiometry N in assay [1] of 7.
PTEX150 (natural protein) came in with a stoichiometry N in assay [2] of 7.
